{"source": "paper PMC12381709", "about": "“Fluorinating the Sugar and the Nucleotide: Exploring Fluorination Within GDP-Mannose Probes Using Chemoenzymatic Synthesis” (JACS Au, 2025)", "experiment_in_all_cases": "purified protein", "conditions_in_all_cases": "co-substrate NAD+", "key": {"[1]": {"test_system": "Nc1nc2c(ncn2[C@@H]2O[C@H](COP(=O)(O)OP(=O)(O)O[C@H]3O[C@H](CO)[C@@H](O)[C@H](O)[C@@H]3F)[C@@H](O)[C@H]2F)c(=O)[nH]1"}, "[2]": {"test_system": "Nc1nc2c(ncn2[C@@H]2O[C@H](COP(=O)(O)OP(=O)(O)O[C@H]3O[C@H](CO)[C@@H](O)[C@H](O)[C@@H]3O)[C@@H](O)[C@H]2F)c(=O)[nH]1"}, "[3]": {"test_system": "Nc1nc2c(ncn2[C@@H]2O[C@H](COP(=O)(O)OP(=O)(O)O[C@H]3O[C@H](CO)[C@@H](O)[C@H](O)[C@@H]3F)[C@@H](O)[C@H]2O)c(=O)[nH]1"}, "[4]": {"test_system": "Nc1nc2c(ncn2[C@@H]2O[C@H](COP(=O)(O)OP(=O)(O)O[C@H]3O[C@H](CO)[C@@H](O)[C@H](O)[C@@H]3O)[C@@H](O)[C@H]2O)c(=O)[nH]1"}}}
{"substance": "GDP-mannose dehydrogenase (GMD; PaGMD) (Pseudomonas aeruginosa PAO1)", "values": [{"measurement": "Km", "setting": "[1]", "result": "87.72 ± 5.82", "unit": "µM"}, {"measurement": "kcat", "setting": "[1]", "result": "0.0407 ± 0.0012", "unit": "s⁻¹"}, {"measurement": "Km", "setting": "[2]", "result": "20.95 ± 0.83", "unit": "µM"}, {"measurement": "kcat", "setting": "[2]", "result": "0.0507 ± 0.00067", "unit": "s⁻¹"}, {"measurement": "Km", "setting": "[3]", "result": "134.29 ± 12.78", "unit": "µM"}, {"measurement": "kcat", "setting": "[3]", "result": "0.0655 ± 0.00267", "unit": "s⁻¹"}, {"measurement": "Km", "setting": "[4]", "result": "18.18 ± 3.82", "unit": "µM"}, {"measurement": "kcat", "setting": "[4]", "result": "0.0427 ± 0.00333", "unit": "s⁻¹"}]}
